Reference: US20220281980A1 (Bristol-Myers Squibb, published 2022)

What was measured:
[1] = molecular target: T1, cynomolgus monkey MICA/B clone #6 expressed on CHO cells (cynomolgus monkey); test: saturation binding of 125I-labelled antibody on CHO-MICA Cyno #6 cells, 25K per well; fit of total binding, non-specific binding not subtracted
T1 construct: whole, on cells; also called cyno#6; CHO-cyno MICA clone #6
Description: (§1) Nonspecific binding was determined by binding in the presence of a titration of a 100 fold molar excess of unlabeled antibody and was subtracted from total counts per minute (CPM) to calculate specific binding. A linear standard curve of ¹²⁵I-MICA.36 concentration versus CPM was used to extrapolate specific activity, maximal nM bound ¹²⁵I-MICA.36 and thereby calculate receptor number per cell.
(§2) Specific activity of the iodinated MICA.36 was determined by plotting antibody titrations against the associated CPMs in a standard curve (FIG. 7A). The specific activity was calculated to be 164,214 CPM in 1 nM of ¹²⁵I-MICA.36. The number of receptors per cell was calculated by the following equation: (Bmax)×(Avogadro's number)×(Assay Volume)/# of cells per well.

[2] = molecular target: T2, cynomolgus monkey MICA/B clone #4 expressed on CHO cells (cynomolgus monkey); test: saturation binding of 125I-labelled antibody on CHO-MICA Cyno #4 cells, 25K per well; fit of total binding, non-specific binding not subtracted
T2 construct: whole, on cells; also called cyno#4; CHO-cyno MICA clone #4
Description: as §1

[3] = molecular target: T1, cynomolgus monkey MICA/B clone #6 …; test: saturation binding of 125I-labelled antibody on CHO-MICA Cyno #6 cells, 25K per well (Scatchard analysis); unit from the x axis 'nM Radioligand'
Description: as §1, §2

[4] = molecular target: T3, human MICB expressed on transduced cells (human, UniProt Q29980 23-382); test: saturation binding of 125I-labelled antibody on CHO-MICB cells, 12500 per well (Scatchard analysis); x axis 'Ab' carries no unit, nM taken from paragraph 587
T3 construct: also called MICB*005
T3 chain: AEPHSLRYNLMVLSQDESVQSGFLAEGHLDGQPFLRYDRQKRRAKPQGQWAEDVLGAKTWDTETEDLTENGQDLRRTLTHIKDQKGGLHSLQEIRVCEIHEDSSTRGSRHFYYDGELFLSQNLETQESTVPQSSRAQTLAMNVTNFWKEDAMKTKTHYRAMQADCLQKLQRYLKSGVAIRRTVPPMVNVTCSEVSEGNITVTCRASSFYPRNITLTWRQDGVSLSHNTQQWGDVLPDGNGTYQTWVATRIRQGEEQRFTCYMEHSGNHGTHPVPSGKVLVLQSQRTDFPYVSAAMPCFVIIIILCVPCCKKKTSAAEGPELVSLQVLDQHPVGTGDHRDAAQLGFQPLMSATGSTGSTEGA
Description: as §1, §2

B1: MICA.36 (antibody, V domains shown)
VH: QVQLVESGGGVVQPGRSLRLSCAASGFTFSNYAMHWVRQAPGEGLEWVALIWYDGSNKFYGDSVKGRFTISRDNSKNTLYLQMNSLSAEDTAVYYCAREGSGHYWGQGTLVTVSS
VL: AIQLTQSPSSLSASVGDRVTITCRASQGISSALAWYQQKPGKVPKSLIYDASSLESGVPSRFSGSGSGTDFTLTISSLQPEDFATYYCQQFNSYPITFGQGTRLEIK
notes: it says that the name implies no specific constant region; Radioiodinated in the Scatchard assay; also called MICA.36 antibody
- Kd of the total-binding curve [1]: 8.27 nM
- Kd of the total-binding curve [2]: 10.2 nM
- Kd [3]: 5.12 nM
- Kd [4]: 1.36 nM
